Consider 13 substances from patent publication US11306156.

Test [1] has as its target Cetuximab light chain Q124E_V133W_S176T_T178L_T180E. The test can be described thus: SMCA co-expression, LC-MS; competing light chain m2.
For test [2], the target named is Cetuximab light chain F116A_V133G_L135V_S176R. As to the kind of experiment: SMCA co-expression, LC-MS; competing light chain m36; estimated change (***).
The target is the same in test [3]. The test can be described thus: SMCA co-expression, LC-MS; competing light chain m36.
Test [4] addresses Cetuximab light chain V133G_N137K_S174R_S176R. The test can be described thus: SMCA co-expression, LC-MS; competing light chain m16; estimated change (***).
Test [5] shares this target. The test can be described thus: SMCA co-expression, LC-MS; competing light chain m24.
The target of test [6] is Cetuximab light chain Q124R_V133A_S176T_T178R. As to the kind of experiment: SMCA co-expression, LC-MS; competing light chain m12; estimated change (***).
Test [7] has the same target. As to the kind of experiment: SMCA co-expression, LC-MS; competing light chain m12.
Test [8] concerns the target D3H44 light chain Q124E_V133E. The test can be described thus: SMCA: four chains co-expressed in CHO-3E7, protein A, LC-MS; competing light chain m35.
The target in test [9] is D3H44 light chain Q124E_V133E. As to the kind of experiment: SMCA: four chains co-expressed in CHO-3E7, protein A, LC-MS; competing light chain m45.
For test [10], the target named is D3H44 light chain Q38R_Q124R_Q160K_T178R. As to the kind of experiment: SMCA: four chains co-expressed in CHO-3E7, protein A, LC-MS; competing light chain m41.
For test [11], the target named is D3H44 light chain Q124E_Q160E_T178E. As to the kind of experiment: SMCA: four chains co-expressed in CHO-3E7, protein A, LC-MS; competing light chain m35.
In test [12] the target is D3H44 light chain F116A_V133G_L135V_S176R. The test can be described thus: SMCA: 2 heavy + 2 light chains co-expressed, protein A, LC-MS; competing light chain m58.
Test [13] has the same target. As to the kind of experiment: SMCA co-expression, LC-MS; competing light chain m32.
For test [14] the target is unchanged. The test can be described thus: SMCA co-expression, LC-MS; competing light chain m36; estimated change (***).
Test [15] shares this target. As to the kind of experiment: SMCA co-expression, LC-MS; competing light chain m36.
Test [16] shares this target. As to the kind of experiment: SMCA co-expression, LC-MS; competing light chain m32; estimated change (***).
Test [17] addresses D3H44 light chain Q124R_V133A_S176T_T178R. The test can be described thus: SMCA co-expression, LC-MS; competing light chain m8.
Test [18] has the same target. The test can be described thus: SMCA co-expression, LC-MS; competing light chain m12.
For test [19], the target named is Trastuzumab light chain Q38R_S131K. As to the kind of experiment: SMCA: four chains co-expressed in CHO-3E7, protein A, LC-MS; competing light chain m26.
Test [20] addresses Trastuzumab light chain Q38E_Q124E_Q160E_T180E. The test can be described thus: SMCA: four chains co-expressed in CHO-3E7, protein A, LC-MS; competing light chain m39.
For test [21], the target named is cetuximab light chain of SMCA design 9820-9823_1 (trastuzumab/cetuximab bispecific system), Q38R_Q124R_Q160K_T178R. The test can be described thus: SMCA: H1, H2, L1 and L2 co-expressed in CHO-3E7 cells, protein A purification, deglycosylation, LC-MS; competing light chain is the trastuzumab light chain (L1).
For test [22] the target is unchanged. The test can be described thus: SMCA, LC-MS after co-expression of the four chains; difference from the wild-type trastuzumab/cetuximab construct at the same DNA ratio.
Test [23] deals with trastuzumab light chain of SMCA design 9820-9823_1 (trastuzumab/cetuximab bispecific system), Q38E_Q124E_Q160E_T180E.
For test [24] the target is unchanged. As to the kind of experiment: SMCA, LC-MS after co-expression of the four chains; difference from the wild-type trastuzumab/cetuximab construct at the same DNA ratio.

As for Cetuximab heavy chain L124A_L143F_Q179K, the Change in % H2L2 Pairing (over all H2 species) with respect to wild type in test [1] worked out at 1.7%.

As to Cetuximab heavy chain L124E_A139W, the Change in % H2L2 Pairing (over all H2 species) with respect to wild type in test [2] is 17%. In addition, in test [3], the % H2L2 Pairing (over all H2 species) turned out to be 42.1%.

With Cetuximab heavy chain L124E_H172T, the Change in % H2L2 Pairing (over all H2 species) with respect to wild type in [4] was 1.6%. In [5], this substance came in with a % H2L2 Pairing (over all H2 species) of 44% and a Change in % H2L2 Pairing (over all H2 species) with respect to wild type of 14.4%.

For “Cetuximab heavy chain L124W_L143E_K145T_Q179E”, the Change in % H2L2 Pairing (over all H2 species) with respect to wild type in test [6] was 33%. The substance further gave a % H2L2 Pairing (over all H2 species) in test [7] of 58.1%.

For the substance “D3H44 full-length heavy chain L143R (from UniProt P0DOX5 2-448)”, the results for the % H1L1 Pairing (over all H1 species) in test [8] and in test [9] were 97.1% and 89.2%, respectively.

Consider “D3H44 full-length heavy chain Q39E_L143E_K145T_Q179E (from UniProt P0DOX5 2-448)”, for which, in test [10], the % H1L1 Pairing (over all H1 species) came to 86.6%.

In test [11], “D3H44 full-length heavy chain S186K (from UniProt P0DOX5 2-448)” yielded a % H1L1 Pairing (over all H1 species) of 98.2%.

In the case of “D3H44 heavy chain L124E_A139W (from UniProt P0DOX5 2-448)”, the % H1L1 Pairing (over all H1 species) is 100% in test [12], 100% in test [13] and 46.8% in test [15]. The Change in % H1L1 Pairing (over all H1 species) with respect to wild type is 25.8% in test [14] and 43.3% in [16].

Consider “D3H44 heavy chain L124W_L143E_K145T_Q179E (from UniProt P0DOX5 2-448)”, for which the Change in % H1L1 Pairing (over all H1 species) with respect to wild type in test [17] is 40.4%; in test [18] it was 7.1%. For the same substance, the % H1L1 Pairing (over all H1 species) in [18] turned out to be 47.7%.

For “Trastuzumab full-length heavy chain Q39E_K145T_Q179E (from UniProt P0DOX5 2-448)”, the % H2L2 Pairing (over all H2 species) in test [19] turned out to be 94.3%.

For “Trastuzumab full-length heavy chain Q39R_H172R_Q179K (from UniProt P0DOX5 2-448)”, the % H2L2 Pairing (over all H2 species) in test [20] amounted to 100%.

In turn, “cetuximab full-length heavy chain of SMCA design 9820-9823_1 (trastuzumab/cetuximab bispecific system), Q39E_L143E_K145T_Q179E” had a % H2L2 Pairing (over all H2 species) in test [21] of 52.3%. Moreover, the Change in % H2L2 Pairing (over all H2 species) with respect to wild type in test [22] was 22.7%.

Regarding “trastuzumab full-length heavy chain of SMCA design 9820-9823_1 (trastuzumab/cetuximab bispecific system), Q39R_H172R_Q179K (from UniProt P0DOX5 2-448)”, the % H1L1 Pairing (over all H1 species) in [23] amounted to 100%. For the same substance, the Change in % H1L1 Pairing (over all H1 species) with respect to wild type in [24] came out at 6%.
